{"source": "patent US6329500A", "about": "“Transforming growth factor-β binding site” (University of Virginia Patent Foundation, priority 1999, dated 2001)", "key": {"[1]": {"molecular_target": "T1, 125I-TGF-β1 binding to immobilized FP3 (Homo sapiens, UniProt P01023+P01137)", "T1 construct": "corresponding to amino acids 614-797 and 798-1082, respectively; made in house", "T1 sequence (P01023 with tags, fused parts or gaps limits assumed)": "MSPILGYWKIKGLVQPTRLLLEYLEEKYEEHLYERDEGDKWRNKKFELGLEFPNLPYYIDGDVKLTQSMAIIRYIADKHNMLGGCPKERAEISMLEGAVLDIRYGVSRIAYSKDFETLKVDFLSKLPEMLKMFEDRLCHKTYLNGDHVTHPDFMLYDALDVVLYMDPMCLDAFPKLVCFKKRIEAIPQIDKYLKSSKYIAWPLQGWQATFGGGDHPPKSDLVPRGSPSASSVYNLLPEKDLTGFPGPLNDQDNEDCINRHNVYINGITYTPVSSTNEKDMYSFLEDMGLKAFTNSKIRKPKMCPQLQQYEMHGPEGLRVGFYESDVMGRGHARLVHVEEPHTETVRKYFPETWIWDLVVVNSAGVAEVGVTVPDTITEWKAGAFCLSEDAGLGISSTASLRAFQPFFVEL", "T1 sequence (P01137 279-390 limits assumed)": "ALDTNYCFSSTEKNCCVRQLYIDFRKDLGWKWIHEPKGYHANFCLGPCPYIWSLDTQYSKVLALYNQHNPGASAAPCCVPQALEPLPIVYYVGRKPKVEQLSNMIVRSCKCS", "test": "Competition for 125I-TGF-β1 binding to PVDF-immobilized FP3", "conditions": "unlabeled TGF-β1 0.2 μM", "protocol": "(§1) To block free sulfhydryls, some samples were treated with 5 mM IAM for 2 h at 25° C. Equivalent amounts of each protein ([…]) were subjected to SDS-PAGE on 10% slabs. IAM-treated GST-α2 M-peptide fusion proteins were subjected to SDS-PAGE as well. All samples were electro-transferred to PVDF membranes. The membranes were blocked with 5% milk and 0.1% Tween 20 in PBS for 12 h at 4° C. and then rinsed with 0.1% Tween 20 in PBS (PBS-T). […] Biophys. Res. Commun. […] NGF-β was radioiodinated with Iodogen, to a specific activity of 2-5 μCi/μg, using the method recommended by the manufacturer. […] After washing the membranes with PBS-T, bound radioligands were detected by Phosphorlmager analysis."}, "[2]": {"system": "FBHE cells", "test": "Endothelial cell proliferation assay, TGF-β alone", "type": "cell-based, bovine", "conditions": "TGF-β 10 pM, 1 h pulse", "protocol": "Fetal bovine heart endothelial (FBHE) cells were cultured in DMEM supplemented with 10% FBS, 20 ng/ml acidic fibroblast growth factor, and 80 ng/ml basic fibroblast growth factor and passaged at subconfluence with trypsin-EDTA. To perform proliferation assays, the cells were plated at a density of 2×10^4 /well (24 well plates) in DMEM supplemented with 0.2% FBS. […] The fusion proteins were preincubated with the TGF-β for 15 min prior to addition to the cultures. At the completion of an incubation, the cultures were washed 3 times with serum-free DMEM and then allowed to incubate in DMEM with 0.2% FBS for 30 h. [^3 H]Thymidine was added for an additional 18 h; the cells were then harvested and [^3 H]thymidine incorporation was quantitated."}, "[3]": {"molecular_target": "T2, TGF-β1 (Homo sapiens, UniProt P01137)", "T2 construct": "purchased R&D Systems (Minneapolis, Minn.)", "T2 sequence (P01137 279-390 limits assumed, species assumed)": "as the sequence (P01137 279-390 limits assumed) above", "conditions": "previously reported in references 31 and 33; mean ± S.E., n=4; read-out: IC50, 125I-TGF-β1 binding to immobilized α2M-MA; cited from earlier work"}, "[4]": {"molecular_target": "T2, TGF-β1", "test": "125I-TGF-β1 binding to immobilized α2M-MA, solution-phase competition", "conditions": "mean ± S.E., n=4; 1 h at 22° C.", "protocol": "The wells were washed three times with PBS-T and blocked with PBS-T for 16 h at 4° C. […] In the presence of a fusion protein (FP) which binds TGF-β, the total concentration of TGF-β [βT ] was related to [βF ], at equilibrium, as follows: [βT ]=[βF ](1+[FP]/KI)."}, "[5]": {"molecular_target": "T3, TGF-β2 (Homo sapiens, UniProt P61812)", "T3 construct": "purchased Genzyme (Cambridge, Mass.)", "T3 sequence (P61812 303-414 limits assumed)": "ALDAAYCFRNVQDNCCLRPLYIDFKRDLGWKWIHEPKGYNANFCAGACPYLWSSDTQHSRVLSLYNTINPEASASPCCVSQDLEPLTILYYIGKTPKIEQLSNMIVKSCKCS", "test": "Ligand blot analysis of 125I-TGF-β2 binding to PVDF-immobilized proteins", "conditions": "SDS-PAGE, PVDF membrane, 125I-TGF-β2 20 pM, 2 h at 25° C.", "protocol": "as §1"}, "[6]": {"molecular_target": "T2, TGF-β1", "test": "Ligand blot analysis of 125I-TGF-β1 binding to PVDF-immobilized proteins", "conditions": "SDS-PAGE, PVDF membrane, 125I-TGF-β1, 2 h at 25° C.", "protocol": "as §1"}, "[7]": {"molecular_target": "T4, NGF-β (Mus musculus, UniProt P01139)", "T4 construct": "from tissue; host or cells: male mouse submaxillary glands", "T4 sequence (P01139 122-239 limits assumed)": "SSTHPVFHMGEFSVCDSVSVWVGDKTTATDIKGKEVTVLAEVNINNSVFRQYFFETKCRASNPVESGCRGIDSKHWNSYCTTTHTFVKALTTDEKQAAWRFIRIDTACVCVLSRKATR", "test": "Ligand blot analysis of 125I-NGF-β binding to PVDF-immobilized proteins", "conditions": "SDS-PAGE, PVDF membrane, 125I-NGF-β 50 pM, 2 h at 25° C.", "protocol": "as §1"}, "[8]": {"molecular_target": "T3, TGF-β2", "conditions": "read-out: KD for the binding of TGF-β2; cited from earlier work"}, "[9]": {"molecular_target": "T3, TGF-β2", "conditions": "previously reported in references 31 and 33; mean ± S.E., n=4; read-out: IC50, 125I-TGF-β2 binding to immobilized α2M-MA; cited from earlier work"}}, "note": "Like-named read-outs stand apart in the source and are kept apart here.", "data": [{"substance": "TGF-β1: transforming growth factor-β1 from R&D Systems", "values": [{"measurement": "Inhibition of 125I-TGF-β1 binding to immobilized FP3", "setting": "[1]", "result": "72±8", "unit": "%"}, {"measurement": "Decrease of [3H]thymidine incorporation", "setting": "[2]", "result": 69, "unit": "%"}]}, {"substance": "Thrombospondin: solution-phase inhibitor of TGF-β binding to immobilized α2M-MA [reference compound]", "values": [{"measurement": "IC50", "setting": "[3]", "result": "160 ± 18", "unit": "nM"}]}, {"substance": "α2 M monomer: prepared by exposing native α2M to 2 mM DTT under non-denaturing conditions", "values": [{"measurement": "IC50", "setting": "[4]", "result": "360 ± 48", "unit": "nM"}]}, {"substance": "α2 M: Human α2-macroglobulin, 718-kDa homotetrameric glycoprotein purified from plasma", "values": [{"measurement": "125I-TGF-β2 binding, ligand blot", "setting": "[5]", "result": "bound"}, {"measurement": "125I-TGF-β1 binding, ligand blot", "setting": "[6]", "result": "bound"}, {"measurement": "125I-NGF-β binding, ligand blot", "setting": "[7]", "result": "bound"}, {"measurement": "Kd", "setting": "[8]", "result": 10, "unit": "nM"}, {"measurement": "IC50", "setting": "[3]", "result": "520 ± 39", "unit": "nM"}, {"measurement": "IC50", "setting": "[9]", "result": "19 ± 3", "unit": "nM"}]}]}
